Experiments:
[1] = substrate: CC=O; assay: purified protein; assay type: biochemical, Geobacillus stearothermophilus; conditions: 0.3 mM NADH, 2.5 mM MgSO4, 100 mM HEPES pH 7, 50°C, acetaldehyde 0.01–0.14 mM
[2] = substrate: CCCC=O; assay: purified protein; assay type: biochemical, Geobacillus stearothermophilus; conditions: 0.3 mM NADH, 2.5 mM MgSO4, 100 mM HEPES pH 7, 50°C, butyraldehyde 0.8–3 mM

B1: ADH (ADH-HT) (Geobacillus stearothermophilus) (protein)
chain: MKAAVVEQFKEPLKIKEVEKPTISYGEVLVRIKACGVCHTDLHAAHGDWPVKPKLPLIPGHEGVGIVEEVGPGVTHLKVGDRVGIPWLYSACGHCDYCLSGQETLCEHQKNAGYSVDGGYAEYCRAAADYVVKIPDNLSFEEAAPIFCAGVTTYKALKVTGAKPGEWVAIYGIGGLGHVAVQYAKAMGLNVVAVDIGDEKLELAKELGADLVVNPLKEDAAKFMKEKVGGVHAAVVTAVSKPAFQSAYNSIRRGGACVLVGLPPEEMPIPIFDTVLNGIKIIGSIVGTRKDLQEALQFAAEGKVKTIIEVQPLEKINEVFDRMLKGQINGRVVLTLEDK
notes: codon-optimised synthetic gene in pET-22b (NdeI/XhoI), C-terminal His-tag, expressed in E. coli, IMAC purified
- Km [1]: 0.065 ± 0.005 mM
- kcat [1]: 141.44 ± 14.52 s⁻¹
- Km [2]: 1.43 ± 0.16 mM
- kcat [2]: 49.16 ± 3.8 s⁻¹

From publication PMC5066087, “In Vitro Bioconversion of Pyruvate to n-Butanol with Minimized Cofactor Utilization” (Frontiers in Bioengineering and Biotechnology, 2016)
